Consider four molecules from patent publication US20100184663A1.

Ends that are not written are not given here.

Experiment [1] has as its target D-IZN17 (HIV-1) (UniProt P04578). The experiment is described as follows: clonal phage binding assay in the presence of 25 µM L-2K-PIE2 competitor.
For experiment [2] the target is unchanged. The experiment is described as follows: clonal phage binding assay, solution phase, D-IZN17 pulled down on streptavidin beads.

B1: PIE2-φ (peptide)
peptide: GACDYPEWRWLCAA
modifications: not fully specified (C-terminus); cysteine pairing not given here; also: displayed on M13 g3 protein
With B1, the fold binding relative to PIE9-φ with D-IZN17 (HIV-1) [1] was determined as 3 fold. In the experiment with D-IZN17 (HIV-1) [2], this molecule showed a fold binding relative to PIE1-φ of 5 fold.

B2: PIE8-φ (peptide)
peptide: GACDYKEWQWLCAA
modifications: not fully specified (C-terminus); cysteine pairing not given here; also: displayed on M13 g3 protein
With B2, the fold binding relative to PIE2-φ with D-IZN17 (HIV-1) [1] is 2 fold.
Take GACDYPEWRWLCAAA [PIE2-AAA-φ]: the fold binding relative to wt PIE2-φ with D-IZN17 (HIV-1) [1] came out at 70 fold.

B3: PIE7-φ (peptide)
peptide: GACDYPEWQWLCAA
modifications: not fully specified (C-terminus); cysteine pairing not given here; also: displayed on M13 g3 protein
Take B3: in the experiment with D-IZN17 (HIV-1) [1], the fold binding relative to PIE2-φ amounted to 10 fold.
